{"source": "patent US20100074897A1", "about": "“Methods and Compositions related to HIF-1 alpha” (University of Utah Research Foundation, priority 2006, published 2010)", "key": {"[1]": {"biological_target": "synthetic peptide corresponding to HIF-1α residues 299-329"}, "[2]": {"biological_target": "synthetic peptide harboring HIF-2α T324V mutation"}, "[3]": {"biological_target": "synthetic peptide including HIF-2α residues 314-331"}}, "data": [{"protein": "recombinant PKD1 (Upstate Biotechnology) (protein) MSAPPVLRPPSPLLPVAAAAAAAAAALVPGSGPGPAPFLAPVAAPVGGISFHLQIGLSREPVLLLQDSSGDYSLAHVREMACSIVDQKFPECGFYGMYDKILLFRHDPTSENILQLVKAASDIQEGDLIEVVLSASATFEDFQIRPHALFVHSYRAPAFCDHCGEMLWGLVRQGLKCEGCGLNYHKRCAFKIPNNCSGVRRRRLSNVSLTGVSTIRTSSAELSTSAPDEPLLQKSPSESFIGREKRSNSQSYIGRPIHLDKILMSKVKVPHTFVIHSYTRPTVCQYCKKLLKGLFRQGLQCKDCRFNCHKRCAPKVPNNCLGEVTINGDLLSPGAESDVVMEEGSDDNDSERNSGLMDDMEEAMVQDAEMAMAECQNDSGEMQDPDPDHEDANRTISPSTSNNIPLMRVVQSVKHTKRKSSTVMKEGWMVHYTSKDTLRKRHYWRLDSKCITLFQNDTGSRYYKEIPLSEILSLEPVKTSALIPNGANPHCFEITTANVVYYVGENVVNPSSPSPNNSVLTSGVGADVARMWEIAIQHALMPVIPKGSSVGTGTNLHRDISVSISVSNCQIQENVDISTVYQIFPDEVLGSGQFGIVYGGKHRKTGRDVAIKIIDKLRFPTKQESQLRNEVAILQNLHHPGVVNLECMFETPERVFVVMEKLHGDMLEMILSSEKGRLPEHITKFLITQILVALRHLHFKNIVHCDLKPENVLLASADPFPQVKLCDFGFARIIGEKSFRRSVVGTPAYLAPEVLRNKGYNRSLDMWSVGVIIYVSLSGTFPFNEDEDIHDQIQNAAFMYPPNPWKEISHEAIDLINNLLQVKMRKRYSVDKTLSHPWLQDYQTWLDLRELECKIGERYITHESDDLRWEKYAGEQGLQYPTHLINPSASHSDTPETEETEMKALGERVSIL", "values": [{"measurement": "PKD1-mediated phosphorylation in an in vitro kinase assay (c.p.m.)", "setting": "[1]", "result": "a HIF-2α peptide, but not its HIF-1α counterpart, was robustly phosphorylated"}, {"measurement": "PKD1-mediated phosphorylation in an in vitro kinase assay (c.p.m.)", "setting": "[2]", "result": "replacement of Thr-324 with valine abolished phosphorylation"}, {"measurement": "PKD1-mediated phosphorylation in an in vitro kinase assay (c.p.m.)", "setting": "[3]", "result": "a HIF-2α peptide, but not its HIF-1α counterpart, was robustly phosphorylated"}]}]}
